{
  "source": "patent US20260209311A1",
  "about": "(published 2026)",
  "target": "GPR75-GFP10-11 modified protein complex (UniProt O95800 1-395; P42212 3-196 = GFP)",
  "experiment": "SPR; steady state affinity",
  "data": [
    {"binder": "CCL5 ligand (ligand) SPYSSDTTPCCFAYIARPLPRAHIKEYFYTSGKCSNPAVVFVTRKNRQVCANPEKKWVREYINSLEMS", "values": [
      {"measurement": "Kd", "value": 0.388, "unit": "nM"}
    ]}
  ]
}
